Reference: patent US20080132679A1 (KANEKA, published 2008)

B1: peptide P14 (peptide)
peptide: CASDIVEGLYIVLAER
notes: Chemically synthesized by the Fmoc method; immobilized on a CM5 sensor chip by amine coupling (200 RU) for the Biacore assay; also called Peptide 14
B2: peptide P15 (peptide)
peptide: CASDIVEGIYL
notes: Chemically synthesized; immobilized on a CM5 sensor chip by amine coupling (130 RU) for the Biacore assay; also called Peptide 15
B3: peptide P21 (peptide)
peptide: CQHILGSDIVEGIYL
notes: Chemically synthesized; immobilized on a CM5 sensor chip by amine coupling (270 RU) for the Biacore assay; also called Peptide 21

Target: T1, Recombinant Human Insulin Receptor (28-956) (human, UniProt P06213 28-956)
T1 construct: range 28-956; Bought soluble receptor used as the analyte; also called soluble insulin receptor; SIR
Assay: SPR (BIAcore), peptide immobilized on CM5 by amine coupling, SIR as analyte 0.781-100 nM
Method: The ligand was immobilized on the sensor chip CM5 research grade (Biacore AB) by the amine coupling method. Thus, the peptide mentioned above was dissolved in 20 mM carbonate buffer (pH 8.5) (500 μg/ml), and 100 μl of the solution was passed through the flow cell at a flow rate of 5 μl/min. The amount of the peptide immobilized was 200 RU (resonance units).
Recombinant Human Insulin Receptor (28-956) (GT/TECHNE Corp.) was used as the analyte soluble insulin receptor (SIR). To 50 mg in a vial was added HBS-EP buffer (250 ml) for thorough dissolution ([…]), and the solution was 10-fold diluted to give a 100 nM solution. Eight concentration levels from 100 nM to 0.781 nM were prepared by subsequent repetitions of doubling dilution, and measurements were carried out using HBS-EP buffer (10 mM HEPES pH 7.4, 0.15M NaCl, 3 mM EDTA, 0.005% Surfactant P20) (Biacore AB) as a running solution; the rate of flow was 10 μl/min. A sensorgram was thus obtained.
Recombinant Human Insulin Receptor (28-956) (GT/TECHNE Corp.) was used as the analyte SIR. Eight concentration levels from 100 nM to 0.781 nM were prepared by subsequent repetitions of doubling dilution, which was started from diluting 100 nM solution, and measurements were carried out using HBS-EP buffer as a running solution; the rate of flow was 10 μl/min. A sensorgram was thus obtained.

Binder	Kd
B1	1.6 µM
B2	24 µM
B3	12 µM
